Assay results taken from patent publication US20240261333A1, “NOVEL TARGETS FOR ENHANCING ANTI-TUMOR IMMUNITY” (THE BROAD INSTITUTE, INC., priority 2021, published 2024).

How the values were obtained:
CALU (human) = CALU (human) (UniProt O43852); test: co-IP/MS, IgG control IP of C-FLAG B3GNT2 cell lysate
CANX (human) = CANX (human) (UniProt P27824); test: as above
CAPZB (human) = CAPZB (human) (UniProt P47756); test: as above
CASP14 (human) = CASP14 (human) (UniProt P31944); test: as above
CKAP4 (human) = CKAP4 (human) (UniProt Q07065); test: as above
ERLIN1 (human) = ERLIN1 (human) (UniProt O75477); test: as above
ERLIN2 (human) = ERLIN2 (human) (UniProt O94905); test: as above
FAM3C (human) = FAM3C (human) (UniProt Q92520); test: as above
FKBP10 (human) = FKBP10 (human) (UniProt Q96AY3); test: as above
GCN1 (human) = GCN1 (human) (UniProt Q92616); test: as above
HSD17B12 (human) = HSD17B12 (human) (UniProt Q53GQ0); test: as above
IPO4 (human) = IPO4 (human) (UniProt Q8TEX9); test: as above
LRP1 (human) = LRP1 (human) (UniProt Q07954); test: as above
PCBP1 (human) = PCBP1 (human) (UniProt Q15365); test: as above
PDIA6 (human) = PDIA6 (human) (UniProt Q15084); test: as above
PIP (human) = PIP (human) (UniProt P12273); test: as above
PRDX1 (human) = PRDX1 (human) (UniProt Q06830); test: as above
PRDX2 (human) = PRDX2 (human) (UniProt P32119); test: as above
RCN2 (human) = RCN2 (human) (UniProt Q14257); test: as above
RPL13A (human) = RPL13A (human) (UniProt P40429); test: as above
RPL23A (human) = RPL23A (human) (UniProt P62750); test: as above
RPLPO (human) = RPLPO (human) (UniProt P05388); test: as above
RPS12 (human) = RPS12 (human) (UniProt P25398); test: as above
RPS15 (human) = RPS15 (human) (UniProt P62841); test: as above
RPS3A (human) = RPS3A (human) (UniProt P61247); test: as above
RPS5 (human) = RPS5 (human) (UniProt P46782); test: as above
RPS7 (human) = RPS7 (human) (UniProt P62081); test: as above
RPS9 (human) = RPS9 (human) (UniProt P46781); test: as above
SQSTM1 (human) = SQSTM1 (human) (UniProt Q13501); test: as above
TGM3 (human) = TGM3 (human) (UniProt Q08188); test: as above
TUBB (human) = TUBB (human) (UniProt P07437); test: as above
UQCRC2 (human) = UQCRC2 (human) (UniProt P22695); test: as above
HBA1 = HBA1 (UniProt P69905); test: co-IP with anti-FLAG, mass spectrometry; C-FLAG B3GNT2
LTF = LTF (UniProt P02788); test: as above
LYZ = LYZ (UniProt P61626); test: as above
RPL21 = RPL21 (UniProt P46778); test: as above
RPL36A = RPL36A (UniProt P83881); test: as above
RPS15A = RPS15A (UniProt P62244); test: as above
SSR1 = SSR1 (UniProt P43307); test: as above
Sequence of SSR1 (P43307 19-286 limits assumed): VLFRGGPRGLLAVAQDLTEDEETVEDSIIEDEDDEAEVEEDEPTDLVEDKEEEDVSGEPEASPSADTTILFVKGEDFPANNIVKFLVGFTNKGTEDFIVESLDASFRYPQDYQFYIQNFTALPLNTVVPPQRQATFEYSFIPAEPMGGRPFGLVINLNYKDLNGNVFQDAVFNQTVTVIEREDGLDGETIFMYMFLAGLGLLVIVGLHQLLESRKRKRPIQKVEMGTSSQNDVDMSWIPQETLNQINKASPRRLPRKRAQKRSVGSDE

Sequence of PRDX1 (human) (Q06830 2-199 limits assumed): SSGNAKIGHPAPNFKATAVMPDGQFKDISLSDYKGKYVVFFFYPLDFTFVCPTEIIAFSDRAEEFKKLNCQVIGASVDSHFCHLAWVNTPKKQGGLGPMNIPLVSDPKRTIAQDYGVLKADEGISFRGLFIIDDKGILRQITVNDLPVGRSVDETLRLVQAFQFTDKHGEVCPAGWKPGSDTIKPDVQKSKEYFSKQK
Sequence of RCN2 (human) (Q14257 other isoform, or with tags, fused parts or gaps limits assumed): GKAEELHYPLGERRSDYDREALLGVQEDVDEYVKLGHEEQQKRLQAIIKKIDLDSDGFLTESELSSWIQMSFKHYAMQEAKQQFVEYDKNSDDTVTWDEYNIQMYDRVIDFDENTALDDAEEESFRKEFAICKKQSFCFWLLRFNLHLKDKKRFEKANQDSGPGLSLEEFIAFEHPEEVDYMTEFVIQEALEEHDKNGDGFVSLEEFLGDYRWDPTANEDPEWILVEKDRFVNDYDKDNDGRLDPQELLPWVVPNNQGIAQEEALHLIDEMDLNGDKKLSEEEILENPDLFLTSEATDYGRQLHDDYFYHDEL
Sequence of TUBB (human) (P07437 whole entry): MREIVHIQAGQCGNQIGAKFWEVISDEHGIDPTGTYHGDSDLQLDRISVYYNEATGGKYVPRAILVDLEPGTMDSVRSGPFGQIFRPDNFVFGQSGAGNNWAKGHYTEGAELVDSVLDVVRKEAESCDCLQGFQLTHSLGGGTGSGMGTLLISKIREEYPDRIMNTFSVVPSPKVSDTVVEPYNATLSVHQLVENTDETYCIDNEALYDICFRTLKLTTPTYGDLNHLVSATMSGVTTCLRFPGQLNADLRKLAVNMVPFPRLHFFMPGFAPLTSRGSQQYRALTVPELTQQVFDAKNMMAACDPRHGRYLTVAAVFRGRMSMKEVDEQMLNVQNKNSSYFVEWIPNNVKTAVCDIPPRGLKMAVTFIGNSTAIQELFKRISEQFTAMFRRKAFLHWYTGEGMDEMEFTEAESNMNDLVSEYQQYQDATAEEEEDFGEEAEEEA
Sequence of HSD17B12 (human) (Q53GQ0 whole entry): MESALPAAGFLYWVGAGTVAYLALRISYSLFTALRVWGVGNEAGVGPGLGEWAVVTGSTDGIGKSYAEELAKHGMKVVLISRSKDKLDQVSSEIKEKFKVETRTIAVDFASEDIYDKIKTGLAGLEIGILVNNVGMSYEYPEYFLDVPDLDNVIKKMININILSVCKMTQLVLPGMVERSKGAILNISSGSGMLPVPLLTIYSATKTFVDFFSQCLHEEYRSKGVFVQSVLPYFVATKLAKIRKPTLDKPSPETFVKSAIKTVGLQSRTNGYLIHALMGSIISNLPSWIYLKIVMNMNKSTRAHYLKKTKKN
Sequence of TGM3 (human) (Q08188 2-693 limits assumed): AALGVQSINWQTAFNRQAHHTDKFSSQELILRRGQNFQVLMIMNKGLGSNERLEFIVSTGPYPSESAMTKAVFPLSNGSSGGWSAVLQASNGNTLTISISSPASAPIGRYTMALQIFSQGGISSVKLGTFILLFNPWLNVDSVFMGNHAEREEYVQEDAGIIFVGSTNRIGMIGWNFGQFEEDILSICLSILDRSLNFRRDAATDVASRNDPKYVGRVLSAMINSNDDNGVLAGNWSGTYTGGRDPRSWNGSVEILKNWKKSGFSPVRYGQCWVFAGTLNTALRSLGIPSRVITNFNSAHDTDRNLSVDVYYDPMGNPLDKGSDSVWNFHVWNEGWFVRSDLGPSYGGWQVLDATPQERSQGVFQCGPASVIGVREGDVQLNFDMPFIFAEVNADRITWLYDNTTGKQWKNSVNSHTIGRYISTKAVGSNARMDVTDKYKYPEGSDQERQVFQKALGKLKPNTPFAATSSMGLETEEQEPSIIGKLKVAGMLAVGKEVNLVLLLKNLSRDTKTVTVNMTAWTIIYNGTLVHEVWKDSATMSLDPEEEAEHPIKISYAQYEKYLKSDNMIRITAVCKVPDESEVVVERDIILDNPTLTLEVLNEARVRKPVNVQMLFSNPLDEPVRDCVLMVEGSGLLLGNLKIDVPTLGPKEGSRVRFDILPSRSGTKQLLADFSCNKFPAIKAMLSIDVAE
Sequence of CALU (human) (O43852 20-315 limits assumed): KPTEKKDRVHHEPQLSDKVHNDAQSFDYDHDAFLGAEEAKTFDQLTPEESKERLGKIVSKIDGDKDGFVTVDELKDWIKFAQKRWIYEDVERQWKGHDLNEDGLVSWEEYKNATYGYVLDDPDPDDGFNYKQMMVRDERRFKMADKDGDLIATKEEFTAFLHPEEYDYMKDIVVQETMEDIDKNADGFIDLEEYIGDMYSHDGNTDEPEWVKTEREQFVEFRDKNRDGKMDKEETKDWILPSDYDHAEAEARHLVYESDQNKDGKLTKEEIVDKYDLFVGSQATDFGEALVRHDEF
Sequence of LTF (P02788 20-710 limits assumed): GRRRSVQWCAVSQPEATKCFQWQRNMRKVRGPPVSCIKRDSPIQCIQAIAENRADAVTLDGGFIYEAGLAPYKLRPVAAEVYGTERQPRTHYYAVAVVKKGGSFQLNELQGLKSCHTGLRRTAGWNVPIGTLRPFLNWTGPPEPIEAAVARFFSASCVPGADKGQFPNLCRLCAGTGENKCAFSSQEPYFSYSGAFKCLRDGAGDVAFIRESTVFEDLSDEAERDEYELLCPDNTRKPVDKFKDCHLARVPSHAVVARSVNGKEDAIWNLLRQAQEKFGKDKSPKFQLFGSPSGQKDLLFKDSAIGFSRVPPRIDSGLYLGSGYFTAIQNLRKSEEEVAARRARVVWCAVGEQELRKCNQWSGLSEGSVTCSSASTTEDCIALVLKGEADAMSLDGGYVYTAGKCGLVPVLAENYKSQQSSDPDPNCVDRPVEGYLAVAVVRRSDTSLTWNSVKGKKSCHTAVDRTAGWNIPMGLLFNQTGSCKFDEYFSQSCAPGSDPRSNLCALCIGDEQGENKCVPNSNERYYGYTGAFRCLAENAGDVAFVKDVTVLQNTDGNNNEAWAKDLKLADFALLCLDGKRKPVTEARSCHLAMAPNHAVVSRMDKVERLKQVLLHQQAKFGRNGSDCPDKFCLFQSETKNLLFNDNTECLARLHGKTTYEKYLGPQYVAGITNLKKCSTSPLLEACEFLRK
Sequence of LYZ (P61626 19-148 limits assumed): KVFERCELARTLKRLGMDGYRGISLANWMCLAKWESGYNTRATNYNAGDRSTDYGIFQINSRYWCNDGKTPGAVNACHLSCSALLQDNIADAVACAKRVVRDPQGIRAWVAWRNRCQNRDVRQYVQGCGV
Sequence of ERLIN1 (human) (O75477 whole entry): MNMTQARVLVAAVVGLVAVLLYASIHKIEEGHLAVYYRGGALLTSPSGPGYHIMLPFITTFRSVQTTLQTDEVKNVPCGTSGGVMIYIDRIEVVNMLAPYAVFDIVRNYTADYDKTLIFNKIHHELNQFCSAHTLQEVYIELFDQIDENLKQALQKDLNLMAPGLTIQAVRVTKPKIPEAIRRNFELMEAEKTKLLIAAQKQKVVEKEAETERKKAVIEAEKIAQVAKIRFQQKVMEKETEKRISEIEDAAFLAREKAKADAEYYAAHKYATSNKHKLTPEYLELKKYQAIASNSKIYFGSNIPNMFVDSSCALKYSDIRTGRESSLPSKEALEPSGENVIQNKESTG
Sequence of FAM3C (human) (Q92520 25-227 limits assumed): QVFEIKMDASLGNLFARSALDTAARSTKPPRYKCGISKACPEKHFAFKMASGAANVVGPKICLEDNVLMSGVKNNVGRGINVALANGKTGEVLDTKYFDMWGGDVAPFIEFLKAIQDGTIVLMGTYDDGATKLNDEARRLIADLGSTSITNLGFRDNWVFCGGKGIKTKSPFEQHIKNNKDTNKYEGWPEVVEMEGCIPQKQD
Sequence of PCBP1 (human) (Q15365 whole entry): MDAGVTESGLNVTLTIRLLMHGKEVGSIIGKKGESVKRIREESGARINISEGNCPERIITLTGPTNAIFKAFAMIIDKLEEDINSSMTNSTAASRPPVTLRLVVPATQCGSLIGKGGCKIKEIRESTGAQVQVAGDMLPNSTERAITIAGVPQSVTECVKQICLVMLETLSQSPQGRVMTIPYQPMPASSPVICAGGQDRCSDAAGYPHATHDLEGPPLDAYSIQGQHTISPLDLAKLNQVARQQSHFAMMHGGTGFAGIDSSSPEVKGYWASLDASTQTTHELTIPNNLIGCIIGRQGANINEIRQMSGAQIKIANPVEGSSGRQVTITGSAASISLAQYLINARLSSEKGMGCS
Sequence of CKAP4 (human) (Q07065 whole entry): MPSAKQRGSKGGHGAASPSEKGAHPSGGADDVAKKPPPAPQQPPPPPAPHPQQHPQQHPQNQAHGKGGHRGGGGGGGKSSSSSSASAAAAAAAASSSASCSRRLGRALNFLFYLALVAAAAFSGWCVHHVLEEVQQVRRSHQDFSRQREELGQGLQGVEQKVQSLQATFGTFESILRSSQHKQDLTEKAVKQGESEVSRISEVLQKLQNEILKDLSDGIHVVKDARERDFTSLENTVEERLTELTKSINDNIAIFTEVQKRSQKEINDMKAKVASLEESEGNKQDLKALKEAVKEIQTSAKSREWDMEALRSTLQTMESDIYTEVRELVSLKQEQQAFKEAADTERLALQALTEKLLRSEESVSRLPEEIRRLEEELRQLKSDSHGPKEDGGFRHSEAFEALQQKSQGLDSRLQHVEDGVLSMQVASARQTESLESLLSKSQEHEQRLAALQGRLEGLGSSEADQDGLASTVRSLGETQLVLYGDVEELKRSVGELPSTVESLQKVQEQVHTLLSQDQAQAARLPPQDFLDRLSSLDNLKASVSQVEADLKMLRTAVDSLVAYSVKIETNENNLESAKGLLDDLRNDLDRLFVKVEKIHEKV

## IgG control (Millipore Sigma 12-371) (antibody)
CALU (human)
  co-IP mass spectrometry count: 0
CANX (human)
  co-IP mass spectrometry count: 0
CAPZB (human)
  co-IP mass spectrometry count: 0
CASP14 (human)
  co-IP mass spectrometry count: 4
CKAP4 (human)
  co-IP mass spectrometry count: 0
ERLIN1 (human)
  co-IP mass spectrometry count: 0
ERLIN2 (human)
  co-IP mass spectrometry count: 0
FAM3C (human)
  co-IP mass spectrometry count: 0
FKBP10 (human)
  co-IP mass spectrometry count: 0
GCN1 (human)
  co-IP mass spectrometry count: 0
HSD17B12 (human)
  co-IP mass spectrometry count: 0
IPO4 (human)
  co-IP mass spectrometry count: 0
LRP1 (human)
  co-IP mass spectrometry count: 0
PCBP1 (human)
  co-IP mass spectrometry count: 3
PDIA6 (human)
  co-IP mass spectrometry count: 0
PIP (human)
  co-IP mass spectrometry count: 2
PRDX1 (human)
  co-IP mass spectrometry count: 0
PRDX2 (human)
  co-IP mass spectrometry count: 0
RCN2 (human)
  co-IP mass spectrometry count: 0
RPL13A (human)
  co-IP mass spectrometry count: 0
RPL23A (human)
  co-IP mass spectrometry count: 4
RPLPO (human)
  co-IP mass spectrometry count: 0
RPS12 (human)
  co-IP mass spectrometry count: 4
RPS15 (human)
  co-IP mass spectrometry count: 2
RPS3A (human)
  co-IP mass spectrometry count: 10
RPS5 (human)
  co-IP mass spectrometry count: 0
RPS7 (human)
  co-IP mass spectrometry count: 5
RPS9 (human)
  co-IP mass spectrometry count: 0
SQSTM1 (human)
  co-IP mass spectrometry count: 3
TGM3 (human)
  co-IP mass spectrometry count: 3
TUBB (human)
  co-IP mass spectrometry count: 10
UQCRC2 (human)
  co-IP mass spectrometry count: 0

## C-terminal FLAG tagged B3GNT2 (from UniProt Q9NY97 1-397) (enzyme)
HBA1
  co-IP mass spectrometry count: 4
LTF
  co-IP mass spectrometry count: 7
LYZ
  co-IP mass spectrometry count: 6
RPL21
  co-IP mass spectrometry count: 11
RPL36A
  co-IP mass spectrometry count: 11
RPS15A
  co-IP mass spectrometry count: 6
SSR1
  co-IP mass spectrometry count: 4
